The source of these data is publication PMC6391106 (2019).

Test [1] concerns the target recombinant human C3(H2O) Asn1115 (human, UniProt P01024 23-1663, D1115N). Description: SPR; methylamine-treated C3.
Test [2] addresses T1, recombinant human WT C3(H2O) (human, UniProt P01024 23-1663). Nature of the test: SPR; methylamine-treated C3.
Test [3] deals with T1, recombinant human WT C3(H2O). Description: SPR.
Test [4] deals with murine C3b Asn1115 (mouse, UniProt P01027 749-1663; P01027 749-1663, D1115N). Nature of the test: SPR.
murine C3b Asn1115, sequence (P01027 25-666, chain 1 of 2): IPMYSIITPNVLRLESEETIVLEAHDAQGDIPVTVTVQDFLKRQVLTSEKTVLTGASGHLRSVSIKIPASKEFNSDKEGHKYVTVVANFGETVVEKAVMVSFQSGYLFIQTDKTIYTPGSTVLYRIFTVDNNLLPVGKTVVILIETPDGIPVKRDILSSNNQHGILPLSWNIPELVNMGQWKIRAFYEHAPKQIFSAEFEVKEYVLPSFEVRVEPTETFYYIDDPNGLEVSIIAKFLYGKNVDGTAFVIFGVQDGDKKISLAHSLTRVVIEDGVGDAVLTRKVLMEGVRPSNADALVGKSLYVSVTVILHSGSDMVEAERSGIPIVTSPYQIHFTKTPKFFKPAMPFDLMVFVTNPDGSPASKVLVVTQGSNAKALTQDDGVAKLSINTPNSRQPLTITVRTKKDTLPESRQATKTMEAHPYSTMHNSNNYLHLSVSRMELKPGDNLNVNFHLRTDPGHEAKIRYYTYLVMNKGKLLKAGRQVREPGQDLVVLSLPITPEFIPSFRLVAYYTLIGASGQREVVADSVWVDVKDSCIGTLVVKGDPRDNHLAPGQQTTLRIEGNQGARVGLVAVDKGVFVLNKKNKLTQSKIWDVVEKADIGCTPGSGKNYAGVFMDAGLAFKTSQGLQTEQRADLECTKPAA
murine C3b Asn1115, sequence (P01027 749-1663 D1115N, chain 2 of 2): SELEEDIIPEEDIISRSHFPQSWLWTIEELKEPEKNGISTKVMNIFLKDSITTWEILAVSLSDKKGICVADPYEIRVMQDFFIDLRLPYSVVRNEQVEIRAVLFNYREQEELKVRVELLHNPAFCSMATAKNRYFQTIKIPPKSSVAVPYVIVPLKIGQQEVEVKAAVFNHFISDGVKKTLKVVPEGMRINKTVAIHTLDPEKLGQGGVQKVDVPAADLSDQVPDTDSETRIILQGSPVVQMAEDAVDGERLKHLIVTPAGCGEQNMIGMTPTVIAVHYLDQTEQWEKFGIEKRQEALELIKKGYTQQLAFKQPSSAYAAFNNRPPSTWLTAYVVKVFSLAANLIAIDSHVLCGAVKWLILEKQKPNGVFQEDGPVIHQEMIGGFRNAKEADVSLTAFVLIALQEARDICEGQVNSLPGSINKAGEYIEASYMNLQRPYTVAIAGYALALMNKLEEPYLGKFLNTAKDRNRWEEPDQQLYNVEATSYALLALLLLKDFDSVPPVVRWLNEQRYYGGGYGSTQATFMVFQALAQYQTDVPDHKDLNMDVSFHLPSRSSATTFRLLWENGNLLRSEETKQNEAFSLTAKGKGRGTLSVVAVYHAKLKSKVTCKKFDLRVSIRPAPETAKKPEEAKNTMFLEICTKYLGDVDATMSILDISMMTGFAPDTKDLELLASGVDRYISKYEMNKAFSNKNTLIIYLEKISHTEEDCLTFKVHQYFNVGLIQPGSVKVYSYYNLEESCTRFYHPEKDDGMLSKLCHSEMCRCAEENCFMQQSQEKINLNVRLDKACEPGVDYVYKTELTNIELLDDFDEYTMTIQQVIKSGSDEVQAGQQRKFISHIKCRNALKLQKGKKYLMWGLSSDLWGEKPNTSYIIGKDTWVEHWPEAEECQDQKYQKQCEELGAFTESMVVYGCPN

T1 sequence (P01024 23-1663): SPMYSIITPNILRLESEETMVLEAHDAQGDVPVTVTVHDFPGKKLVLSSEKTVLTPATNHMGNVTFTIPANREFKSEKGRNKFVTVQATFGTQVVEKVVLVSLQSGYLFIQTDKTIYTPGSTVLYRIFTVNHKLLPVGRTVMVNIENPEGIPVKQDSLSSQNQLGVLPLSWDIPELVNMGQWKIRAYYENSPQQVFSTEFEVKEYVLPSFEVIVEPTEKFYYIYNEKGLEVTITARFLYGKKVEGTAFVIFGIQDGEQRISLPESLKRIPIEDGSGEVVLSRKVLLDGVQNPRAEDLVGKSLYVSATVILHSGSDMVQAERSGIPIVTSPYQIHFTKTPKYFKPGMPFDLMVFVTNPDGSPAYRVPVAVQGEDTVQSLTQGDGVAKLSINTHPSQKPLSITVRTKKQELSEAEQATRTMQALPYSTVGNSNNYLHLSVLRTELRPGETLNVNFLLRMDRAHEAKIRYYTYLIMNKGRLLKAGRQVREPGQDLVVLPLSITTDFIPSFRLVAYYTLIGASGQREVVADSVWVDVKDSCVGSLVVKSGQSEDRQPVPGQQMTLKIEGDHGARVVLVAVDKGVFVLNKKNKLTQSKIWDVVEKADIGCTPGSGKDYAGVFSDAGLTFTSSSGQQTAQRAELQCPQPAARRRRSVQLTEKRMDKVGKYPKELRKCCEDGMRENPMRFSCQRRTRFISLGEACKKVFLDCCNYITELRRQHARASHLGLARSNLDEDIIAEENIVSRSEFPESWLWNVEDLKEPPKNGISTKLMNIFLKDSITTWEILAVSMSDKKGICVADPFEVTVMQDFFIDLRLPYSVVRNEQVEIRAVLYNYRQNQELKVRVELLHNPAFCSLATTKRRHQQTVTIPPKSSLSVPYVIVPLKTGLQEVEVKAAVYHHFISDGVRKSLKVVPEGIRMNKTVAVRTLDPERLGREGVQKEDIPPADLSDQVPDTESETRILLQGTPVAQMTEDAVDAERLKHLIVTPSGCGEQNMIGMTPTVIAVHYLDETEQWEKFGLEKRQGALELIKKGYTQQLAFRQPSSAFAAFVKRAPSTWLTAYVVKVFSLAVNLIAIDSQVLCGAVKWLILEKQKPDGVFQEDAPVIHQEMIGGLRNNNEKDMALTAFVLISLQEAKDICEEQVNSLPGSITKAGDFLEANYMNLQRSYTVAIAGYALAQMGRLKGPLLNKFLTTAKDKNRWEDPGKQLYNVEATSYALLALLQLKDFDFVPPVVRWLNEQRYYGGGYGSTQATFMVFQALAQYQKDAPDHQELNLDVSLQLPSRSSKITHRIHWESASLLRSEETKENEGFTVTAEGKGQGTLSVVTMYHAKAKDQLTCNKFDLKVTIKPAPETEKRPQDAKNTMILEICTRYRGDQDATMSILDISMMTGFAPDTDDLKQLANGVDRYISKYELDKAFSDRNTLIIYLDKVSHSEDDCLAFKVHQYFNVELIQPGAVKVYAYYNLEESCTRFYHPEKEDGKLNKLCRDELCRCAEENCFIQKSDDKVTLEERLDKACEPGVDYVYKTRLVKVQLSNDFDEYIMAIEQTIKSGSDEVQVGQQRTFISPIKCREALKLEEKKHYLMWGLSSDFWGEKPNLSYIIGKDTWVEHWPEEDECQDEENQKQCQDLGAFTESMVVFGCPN
recombinant human C3(H2O) Asn1115, sequence (P01024 23-1663 D1115N): as the sequence (P01024 23-1663) above, with D1093N counted along it

B1: human FH (natural protein)
chain: EDCNELPPRRNTEILTGSWSDQTYPEGTQAIYKCRPGYRSLGNVIMVCRKGEWVALNPLRKCQKRPCGHPGDTPFGTFTLTGGNVFEYGVKAVYTCNEGYQLLGEINYRECDTDGWTNDIPICEVVKCLPVTAPENGKIVSSAMEPDREYHFGQAVRFVCNSGYKIEGDEEMHCSDDGFWSKEKPKCVEISCKSPDVINGSPISQKIIYKENERFQYKCNMGYEYSERGDAVCTESGWRPLPSCEEKSCDNPYIPNGDYSPLRIKHRTGDEITYQCRNGFYPATRGNTAKCTSTGWIPAPRCTLKPCDYPDIKHGGLYHENMRRPYFPVAVGKYYSYYCDEHFETPSGSYWDHIHCTQDGWSPAVPCLRKCYFPYLENGYNQNYGRKFVQGKSIDVACHPGYALPKAQTTVTCMENGWSPTPRCIRVKTCSKSSIDIENGFISESQYTYALKEKAKYQCKLGYVTADGETSGSITCGKDGWSAQPTCIKSCDIPVFMNARTKNDFTWFKLNDTLDYECHDGYESNTGSTTGSIVCGYNGWSDLPICYERECELPKIDVHLVPDRKKDQYKVGEVLKFSCKPGFTIVGPNSVQCYHFGLSPDLPICKEQVQSCGPPPELLNGNVKEKTKEEYGHSEVVEYYCNPRFLMKGPNKIQCVDGEWTTLPVCIVEESTCGDIPELEHGWAQLSSPPYYYGDSVEFNCSESFTMIGHRSITCIHGVWTQLPQCVAIDKLKKCKSSNLIILEEHLKNKKEFDHNSNIRYRCRGKEGWIHTVCINGRWDPEVNCSMAQIQLCPPPPQIPNSHNMTTTLNYRDGEKVSVLCQENYLIQEGEEITCKDGRWQSIPLCVEKIPCSQPPQIEHGTINSSRSSQESYAHGTKLSYTCEGGFRISEENETTCYMGKWSSPPQCEGLPCKSPPEISHGVVAHMSDSYQYGEEVTYKCFEGFGIDGPAIAKCLGEKWSHPPSCIKTDCLSLPSFENAIPMGEKKDVYKAGEQVTYTCATYYKMDGASNVTCINSRWTGRPTCRDTSCVNPPTVQNAYIVSRQMSKYPSGERVRYQCRSPYEMFGDEEVMCLNGNWTEPPQCKDSTGKCGPPPPIDNGDITSFPLSVYAPASSVEYQCQNLYQLEGNKRITCRNGQWSEPPKCLHPCVISREIMENYNIALRWTAKQKLYSRTGESVEFVCKRGYRLSSRSHTLRTTCWDGKLEYPTCAKR
On to B1, for which the Kd in test [1] stood at 6.37 µM; in test [2], 3.79 µM.

B2: human membrane cofactor protein (MCP) (natural protein)
chain: CEEPPTFEAMELIGKPKPYYEIGERVDYKCKKGYFYIPPLATHTICDRNHTWLPVSDDACYRETCPYIRDPLNGQAVPANGTYEFGYQMHFICNEGYYLIGEEILYCELKGSVAIWSGKPPICEKVLCTPPPKIKNGKHTFSEVEVFEYLDAVTYSCDPAPGPDPFSLIGESTIYCGDNSVWSRAAPECKVVKCRFPVVENGKQISGFGKKFYYKATVMFECDKGFYLDGSDTIVCDSNSTWDPPVPKCLKVLPPSSTKPPALSHSVSTSSTTKSPASSASGPRPTYKPPVSNYPGYPKPEEGILDSLDVWVIAVIVIAIVVGVAVICVVPYRYLQRRKKKGTYLTDETHREVKFTSL
With B2, the Kd in test [3] worked out at 2.1 µM.

B3: recombinant human FH SCRs 19–20 (domain or fragment)
chain: GKCGPPPPIDNGDITSFPLSVYAPASSVEYQCQNLYQLEGNKRITCRNGQWSEPPKCLHPCVISREIMENYNIALRWTAKQKLYSRTGESVEFVCKRGYRLSSRSHTLRTTCWDGKLEYPTCAK
modifications: C3b made from plasma-purified C3 by factor B/factor D cleavage (C3a released); beta and alpha' chains disulfide-linked; thioester (Cys1010-Gln1013) hydrolysed; N-glycosylated; amine-coupled to CM5 chip
For the molecule B3, the Kd in test [4] is greater than 17.4 µM.
